Experimental data reported in US20160185859A1 (Pfizer, published 2016).
Read-outs that look alike come from different tables or passages of the source.

How the values were obtained:
[1] = molecular target: T1, human 5T4 antigen (human, UniProt Q13641 32-355, limits assumed); test: BIACORE (SPR); human 5T4 antigen immobilized on CM5 chip
T1 sequence: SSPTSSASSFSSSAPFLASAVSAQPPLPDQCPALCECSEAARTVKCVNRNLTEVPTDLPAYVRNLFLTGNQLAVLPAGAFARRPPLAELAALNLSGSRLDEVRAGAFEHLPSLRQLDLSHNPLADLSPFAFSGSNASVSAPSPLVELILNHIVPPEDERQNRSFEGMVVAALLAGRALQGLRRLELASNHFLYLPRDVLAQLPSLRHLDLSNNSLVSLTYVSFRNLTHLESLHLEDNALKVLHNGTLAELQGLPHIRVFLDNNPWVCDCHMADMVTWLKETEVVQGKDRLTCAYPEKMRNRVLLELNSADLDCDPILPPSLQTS
Experimental: (§1) To assess the binding specificity and affinity of the A1, A2, and A3 antibodies, BIACORE® analysis was performed using human 5T4 antigen immobilized on a CM5 chip. BIACORE® technology utilizes changes in the refractive index at the surface layer upon binding of the antibody to the 5T4 antigen immobilized on the layer. Binding is detected by surface plasmon resonance (SPR) of laser light refracting from the surface. Analysis of the signal kinetics on rate and off rate allows discrimination between non-specific and specific interactions. The H8 anti-5T4 antibody was used as a control. H8 is a hybridoma-generated monoclonal mouse IgG1 antibody described in PCT International Publication No. WO 98/55607 and in Forsberg et al. (1997) J. Biol. Chem. 272(19):[…].
To assess the binding specificity and affinity of the chimeric and humanized H8, A1, A2, and A3 antibodies, BIACORE® analysis was performed using human 5T4 antigen immobilized on a CM5 chip. See Example 2.

[2] = molecular target: T1, human 5T4 antigen; test: ELISA; inhibition of biotinylated chimeric A1 antibody binding to human 5T4
[3] = molecular target: T1, human 5T4 antigen; test: BIACORE (SPR); human 5T4 antigen immobilized on CM5 chip; remark: listed apart in the source
Experimental: as §1

[4] = molecular target: T1, human 5T4 antigen; test: BIACORE; human 5T4 chip saturated with first antibody H8 (competitor)
Experimental: Epitope mapping of the H8, A1, A2, and A3 antibodies was also performed using BIACORE® using a CM5 chip with bound human 5T4 antigen. The chip was saturated with H8, A1, A2, or A3 antibody, and a first response was measured. The chip was then saturated with a second antibody from among the H8, A1, A2, and A3 antibodies, and a second response was measured. For multiple experiments, the chip was regenerated by dissociation of the bound antibodies in 10 mM glycine, pH 1.5, followed by a buffer wash. The percentages shown are the response units measured upon binding by a second antibody directly to the CM5 chip divided by the response units measured upon binding of the second antibody to a CM5 chip saturated with a first antibody.

[5] = molecular target: T2, human 5T4 antigen expressed on cells (PC14PE6 cells; MDAMB435/5T4 cells) (human, UniProt Q13641 32-420); test: FACS of PC14PE6 cells
T2 construct: PC14PE6 are human non-small cell lung cancer cells; also called 5T4-expressing PC14PE6 cells
T2 sequence: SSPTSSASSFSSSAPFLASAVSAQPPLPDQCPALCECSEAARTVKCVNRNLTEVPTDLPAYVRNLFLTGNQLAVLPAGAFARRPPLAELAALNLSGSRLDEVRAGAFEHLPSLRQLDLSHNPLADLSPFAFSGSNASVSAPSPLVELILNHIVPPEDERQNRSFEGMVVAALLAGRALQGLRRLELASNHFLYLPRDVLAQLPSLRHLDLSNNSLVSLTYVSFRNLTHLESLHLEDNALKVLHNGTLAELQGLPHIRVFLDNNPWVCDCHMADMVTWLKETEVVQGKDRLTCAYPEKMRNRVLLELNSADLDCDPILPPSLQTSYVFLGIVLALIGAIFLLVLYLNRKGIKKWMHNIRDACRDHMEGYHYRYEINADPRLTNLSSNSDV

[6] = molecular target: T1, human 5T4 antigen; test: BIACORE; human 5T4 chip saturated with first antibody humanized H8 (competitor); 150 s after injection of second antibody
[7] = molecular target: T1, human 5T4 antigen; test: BIACORE; human 5T4 chip saturated with first antibody humanized H8 (competitor); 600 s after injection of second antibody
[8] = molecular target: T1, human 5T4 antigen; test: BIACORE; human 5T4 chip saturated with first antibody humanized H8 (competitor); 75 s after injection of second antibody
[9] = molecular target: T1, human 5T4 antigen; test: BIACORE; human 5T4 chip saturated with first antibody humanized H8 (competitor); 300 s after injection of second antibody
[10] = molecular target: T1, human 5T4 antigen; test: BIACORE; human 5T4 chip saturated with first antibody humanized H8 (competitor); 37.5 s after injection of second antibody
[11] = molecular target: T1, human 5T4 antigen; test: BIACORE; human 5T4 chip saturated with first antibody humanized H8 (competitor); 19 s after injection of second antibody
[12] = molecular target: chimpanzee 5T4 ectodomain Fc (chimpanzee; human, UniProt P01857 99-330 = IgG part); test: ELISA; 5T4 ectodomain/Fc fusion protein from transiently transfected COS-1 cells; given as ED50
Experimental: (§2) To assay binding of anti-5T4 antibodies, 5T4 ectodomain/Fc fusion proteins were transiently transfected into COS-1 cells, and ELISA assays were performed. Non-relevant human IgG4 and IgG1 antibodies were used as controls.

[13] = molecular target: T3, cynomologous monkey 5T4 ectodomain Fc (cynomologous monkey; human, UniProt Q4R8Y9 32-355); test: as above
T3 construct: not shown: Fc constant regions from human IgG1
T3 chain: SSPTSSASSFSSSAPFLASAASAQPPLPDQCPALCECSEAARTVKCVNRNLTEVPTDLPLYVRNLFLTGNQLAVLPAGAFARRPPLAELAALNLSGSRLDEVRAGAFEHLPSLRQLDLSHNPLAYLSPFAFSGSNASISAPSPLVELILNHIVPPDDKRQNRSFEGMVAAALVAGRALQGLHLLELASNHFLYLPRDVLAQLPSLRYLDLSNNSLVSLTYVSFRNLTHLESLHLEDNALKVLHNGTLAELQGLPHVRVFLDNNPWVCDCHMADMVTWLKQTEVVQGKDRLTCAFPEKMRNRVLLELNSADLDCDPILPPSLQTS
Experimental: as §2

[14] = molecular target: T4, human 5T4 ectodomain Fc (human, UniProt Q13641 32-355); test: as above
T4 construct: also called human 5T4 ectodomain Fc fusion protein; Human 5T4 Ectodomain/Fc Fusion; not shown: Fc constant regions from human IgG1
T4 sequence: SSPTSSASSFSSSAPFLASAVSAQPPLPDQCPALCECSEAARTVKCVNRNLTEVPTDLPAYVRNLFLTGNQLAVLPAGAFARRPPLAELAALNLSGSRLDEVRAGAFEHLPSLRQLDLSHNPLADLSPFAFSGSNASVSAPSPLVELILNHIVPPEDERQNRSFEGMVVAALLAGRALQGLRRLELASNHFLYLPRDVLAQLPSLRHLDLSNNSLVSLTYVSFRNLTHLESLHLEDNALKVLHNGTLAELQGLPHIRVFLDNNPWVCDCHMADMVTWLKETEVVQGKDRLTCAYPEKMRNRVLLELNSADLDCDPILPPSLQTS
Experimental: as §2

B1: chimeric A1 antibody bearing C67F mutation (antibody, V domains shown)
VH: QIQLVQSGPELKKPGETVKISCKASGYTFTNFGMNWVKQGPGEGLKWMGWINTNTGEPRYAEEFKGRFAFSLETTASTAYLQINNLKNEDTATYFCARDWDGAYFFDYWGQGTTLTVSS
VL: SIVMTQTPKFLLVSAGDRVTITCKASQSVSNDVAWYQQKPGQSPKLLINFATNRYTGVPNRFTGSGYGTDFTFTISTVQAEDLALYFCQQDYSSPWTFGGGTKLEIK
notes: also called Chimeric A1 + C67F; ChiA1+C67F
- Ka [1]: 2.6e+09 M⁻¹
- Kd [1]: 0.38 nM
- koff [1]: 6.3e-05 s⁻¹
- kon [1]: 170000 M⁻¹ s⁻¹

B2: huA1 VH v2.0 + huA1 VL v1.1 (antibody, V domains shown)
VH: EVQLVESGGGLVQPGGSLRLSCAASGYTFTNFGMNWVRQAPGKGLEWVAWINTNTGEPRYAEEFKGRFTISRDNAKNSLYLQMNSLRAEDTAVYYCARDWDGAYFFDYWGQGTLVTVSS
VL: DIVMTQSPDSLAVSLGERATINCKASQSVSNDVAWYQQKPGQPPKLLIYFATNRYTGVPDRFSGSGYGTDFTLTISSLQAEDVAVYYCQQDYSSPWTFGQGTKVEIK
notes: also called humanized A1 VH version 2.0 + humanized A1 VL version 1.1
- IC50 [2]: 28 nM

B3: huA1 VH v2.0 + huA1 VL v3.1 (antibody, V domains shown)
VH: EVQLVESGGGLVQPGGSLRLSCAASGYTFTNFGMNWVRQAPGKGLEWVAWINTNTGEPRYAEEFKGRFTISRDNAKNSLYLQMNSLRAEDTAVYYCARDWDGAYFFDYWGQGTLVTVSS
VL: EIVMTQSPATLSLSPGERATLSCKASQSVSNDVAWYQQKPGQAPRLLIYFATNRYTGIPARFSGSGYGTDFTLTISSLQPEDFAVYYCQQDYSSPWTFGQGTKVEIK
- IC50 [2]: 27 nM

B4: huA1 VH v2.0 + huA1 VL v2.4 (antibody, V domains shown)
VH: EVQLVESGGGLVQPGGSLRLSCAASGYTFTNFGMNWVRQAPGKGLEWVAWINTNTGEPRYAEEFKGRFTISRDNAKNSLYLQMNSLRAEDTAVYYCARDWDGAYFFDYWGQGTLVTVSS
VL: DIQMTQSPSSLSASVGDRVTITCKASQSVSNDVAWYQQKPGKAPKLLIYFATNRYTGVPSRFSGSGYGTDFTLTISSLQPEDFATYYCQQDYSSPWTFGQGTKVEIK
- IC50 [2]: 16 nM

B5: murine anti-5T4 antibody A2 (antibody, V domains shown)
VH: QVQLQQSRPELVKPGASVKMSCKASGYTFTDYVISWVKQRTGQGLEWIGEIYPGSNSIYYNEKFKGRATLTADKSSSTAYMQLSSLTSEDSAVYFCAMGGNYGFDYWGQGTTLTVSS
VL: QIVLTQSPAIMSASLGERVTLTCTASSSVNSNYLHWYQQKPGSSPKLWIYSTSNLASGVPARFSGSGSGTSYSLTISSMEAEDAATYYCHQYHRSPLTFGAGTKLELK
notes: also called muA2
- Ka [3]: 6.5e+07 M⁻¹
- Kd [3]: 15 nM
- koff [3]: 0.00087 s⁻¹
- kon [3]: 56000 M⁻¹ s⁻¹
- percentage response of second antibody following saturation with first antibody [4]: 99%
- Mean Cellular Flouresence [5]: 7

B6: chimeric A3 antibody (antibody, human IgG4, V domains shown)
VH: EVQLVESGGGLVQPKGSLKLSCAASGFTFNTYAMNWVRQAPGKGLEWVARIRSKSNNYATYYADSVKDRFTISRDDSQSMLYLQMNNLKTEDTAMYCCVRQWDYDVRAMNYWGQGTSVTVSS
VL: DIVMTQSHIFMSTSVGDRVSITCKASQDVDTAVAWYQQKPGQSPKLLIYWASTRLTGVPDRFTGSGSGTDFTLTISNVQSEDLADYFCQQYSSYPYTFGGGTKLEIK
notes: also called ChiA3; ChiA3 γ4
- percentage of second antibody bound following saturation with first antibody [6]: 67.5%
- percentage of second antibody bound following saturation with first antibody [7]: 83.6%
- percentage of second antibody bound following saturation with first antibody [8]: 58.4%
- Ka [1]: ~5.4e+09 M⁻¹
- Kd [1]: ≤ 0.18 nM
- koff [1]: ≤ 1e-05 s⁻¹
- kon [1]: ~54000 M⁻¹ s⁻¹
- percentage of second antibody bound following saturation with first antibody [9]: 76.2%
- percentage of second antibody bound following saturation with first antibody [10]: 51.2%
- percentage of second antibody bound following saturation with first antibody [11]: 46.2%
- EC50 [12]: 0.2 nM
- EC50 [13]: 0.23 nM
- EC50 [14]: 0.2 nM

B7: murine anti-5T4 antibody A3 (antibody, V domains shown)
VH: EVQLVESGGGLVQPKGSLKLSCAASGFTFNTYAMNWVRQAPGKGLEWVARIRSKSNNYATYYADSVKDRFTISRDDSQSMLYLQMNNLKTEDTAMYCCVRQWDYDVRAMNYWGQGTSVTVSS
VL: DIVMTQSHIFMSTSVGDRVSITCKASQDVDTAVAWYQQKPGQSPKLLIYWASTRLTGVPDRFTGSGSGTDFTLTISNVQSEDLADYFCQQYSSYPYTFGGGTKLEIK
notes: also called muA3
- Ka [3]: 4.6e+08 M⁻¹
- Kd [3]: 2.2 nM
- koff [3]: 5.2e-05 s⁻¹
- kon [3]: 24000 M⁻¹ s⁻¹
- percentage response of second antibody following saturation with first antibody [4]: 73%
- Mean Cellular Flouresence [5]: 27

B8: chimeric A3 antibody bearing C91Y mutation (antibody, V domains shown)
VH: EVQLVESGGGLVQPKGSLKLSCAASGFTFNTYAMNWVRQAPGKGLEWVARIRSKSNNYATYYADSVKDRFTISRDDSQSMLYLQMNNLKTEDTAMYYCVRQWDYDVRAMNYWGQGTSVTVSS
VL: DIVMTQSHIFMSTSVGDRVSITCKASQDVDTAVAWYQQKPGQSPKLLIYWASTRLTGVPDRFTGSGSGTDFTLTISNVQSEDLADYFCQQYSSYPYTFGGGTKLEIK
notes: also called Chimeric A3 + C91Y; ChiA3+C91Y
- Ka [1]: 1.7e+09 M⁻¹
- Kd [1]: 0.59 nM
- koff [1]: 1.6e-05 s⁻¹
- kon [1]: 27000 M⁻¹ s⁻¹
